From US20230265183A1 (MABWELL SHANGHAI BIOSCIENCE, published 2023) come the findings set out here.

Residue numbers refer to the chain shown, from its start. Several values for one entry are separate records, joined by “and”; a condition that tells them apart may be missing. Equal entries are not always repeated. Where two headings read alike, the source gives them in different places.

Assay [1] concerns the target T1, human Nectin-4 (human, UniProt Q96NY8 32-510).
T1 sequence (looked up): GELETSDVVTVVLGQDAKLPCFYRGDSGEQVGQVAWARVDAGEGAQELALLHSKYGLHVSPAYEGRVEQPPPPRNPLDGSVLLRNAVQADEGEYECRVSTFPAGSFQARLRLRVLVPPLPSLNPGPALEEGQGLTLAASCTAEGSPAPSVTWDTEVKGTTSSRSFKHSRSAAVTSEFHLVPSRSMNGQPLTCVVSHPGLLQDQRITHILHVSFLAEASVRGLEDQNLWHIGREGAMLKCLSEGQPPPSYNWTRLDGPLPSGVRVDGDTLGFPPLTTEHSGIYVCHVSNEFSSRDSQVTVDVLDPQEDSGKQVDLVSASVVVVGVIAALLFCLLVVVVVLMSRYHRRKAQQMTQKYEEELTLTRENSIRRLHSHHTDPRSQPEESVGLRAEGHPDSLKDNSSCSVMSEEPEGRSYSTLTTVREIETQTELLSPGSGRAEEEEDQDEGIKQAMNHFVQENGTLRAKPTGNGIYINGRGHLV
The experiment in a line: cell-based or functional assay.

Assay [2] deals with T1, human Nectin-4. Put plainly: FACS on BT474 cells. On the procedure:
(§1) The solutions of different concentrations were added to 384-well plates, 10 µl per well.
(§2) BT474 cells (breast cancer cells) expressing Nectin-4 on the cell surface were collected by centrifugation at 100 g at room temperature for 5 minutes, and then the cells were washed with PBS containing 0.5% BSA once and were centrifuged at 100 g at room temperature for 5 minutes. […] After incubation at 4° C. for 1 hour, fluorescently labeled goat anti-human IgG secondary antibody was added. After continued incubation at 4° C. for 1 hour, mean fluorescence readings of the cell populations were analyzed by a flow cytometer.

The target of assay [3] is T1, human Nectin-4. The experiment in a line: cell-based or functional assay. This is another data set of the same source.
Assay [4] addresses T1, human Nectin-4. Put plainly: cell-based or functional assay. The source holds these as a separate data set.
Assay [5] has as its target T1, human Nectin-4. Put plainly: FACS on BT474 cells. The procedure:
as §1, §2
The experiment results of the binding of engineered humanized molecules of the present disclosure to BT474 cells by FACS assay are shown in panels 3B and 3C in FIG. 3 and Tables 6 and 7.
This is another data set of the same source.

The target in assay [6] is T1, human Nectin-4. The experiment in a line: cell-based or functional assay. This is another data set of the same source.

B1: mIgG 42D20-E (antibody, V domains shown)
VH: QVQLKESGPGLVAPSQSLSISCTVSGFSLIDYGVSWIRQPPGKGLEWLGVIWGDGKIYYNSVLKSRLSISKDNSKSQVFLKMNSLQTDDTAMYYCAKQGGLLFYAMDYWGQGTSVTVSS
VL: DIVMTQSPSSLAMSVGQRVTMNCKSSQSLLNSYSQKNYLAWYQQKPGQSPKLLIYFASTRESGVPDRFIGSGSETDFTLTISSVQAEDLADYFCQQHYNTPFTFGSGTKLEIK
Turning to B1, in assay [1], the “EC50 (ng/ml), inhibition of proliferation of BT474 cells” value (shortened to “EC50 (ng/ml), inhibition”) was determined as 4.64 ng/mL and the “Percentage of cell killing at the highest concentration” value (“Percentage of cell killing” below) was determined as 33.5%.

B2: 20M12 xiIgG-E (antibody, V domains shown)
VH: QVQLQQSGPELVKPGASVRISCKASGYTFTSYYIHWVKQRPGQGLEWIGWIYPGNANNKYNENFKGKATLTADKSSSTAYMQLSSLTSEDSAVYFCARSVYYFDYWGQGTTLTVSS
VL: SVVMTQTPKFLLVSAGDRVTITCKASQSVSNDVAWYQQKPGQSPKLLIYYASNRNTGVPDRFTGSGYGTDFTFNISTVQAEDLAVYFCQQDYSSPYTFGGGTKLEIKR
modifications: vcMMAE conjugated to the TECP-reduced antibody; residues not stated; DAR 4.0±1
B2: the EC50 in assay [2] worked out at 0.227 µg/mL. In assay [3], the “Endocytosis efficiency (%)” value turned out to be 67%. Besides, in assay [4], the “EC50 (ng/ml), inhibition” value came to 14.8 ng/mL and the “Percentage of cell killing” value was 41.4%.

B3: mIgG 5M21-E (antibody, V domains shown)
VH: B2 VH with S21T, S31T, A56V, N58T, N63K, S99G, V100L
VL: SIVMTQTPKFLLVSAGDRLTITCKASQSVSNDVAWYQQKPGQSPKLLIYYASNRYTGVPDRFTGSGYGTDFTFTISTVQAEDLAVYFCQQDYSSPYTFGGGTKLEIK
Turning to B3, in assay [1], the “EC50 (ng/ml), inhibition” value came out at 3.21 ng/mL and the “Percentage of cell killing” value worked out at 36%.

B4: 20M12 hz01-E (antibody, human IgG1, kappa, V domains shown)
VH: QVQLVQSGAEVKKPGASVKVSCKASGYTFTSYYIHWVRQAPGQRLEWMGWIYPGNANNKYNENFKGRVTITRDTSASTAYMELSSLRSEDTAVYYCARSVYYFDYWGQGTLVTVSS
VL: EVVMTQSPATLSVSPGERATLSCKASQSVSNDVAWYQQKPGQAPRLLIYYASNRNTGIPARFSGSGSGTEFTLTISSLQSEDLAVYFCQQDYSSPYTFGGGTKVEIKR
modifications: vcMMAE conjugated to the TECP-reduced antibody; residues not stated; DAR 4.0±1
In turn, B4 returned an EC50 in assay [2] of 0.42 µg/mL. In addition, the “Endocytosis efficiency (%)” value in assay [3] amounted to 56.6%. In addition, in assay [4], the “EC50 (ng/ml), inhibition” value was found to be 24.2 ng/mL and the “Percentage of cell killing” value was 32.2%.

B5: 5M21 hz11-E (antibody, human IgG1, kappa, V domains shown)
VH: B4 VH with S31T, A56V, N58T, N63K, R72A, T74K, S99G, V100L
VL: DIQMTQSPSSLSASVGDRVTITCKASQSVSNDVAWYQQKPGKVPKLLIYYASNRYTGVPSRFSGSGSGTDFTLTISSLQPEDLATYFCQQDYSSPYTFGGGTKVEIKR
modifications: vcMMAE conjugated to the TECP-reduced antibody; residues not stated; DAR 4.0±1
Consider B5, for which the “Percentage of cell killing” value in assay [1] amounted to 38.5%.

B6: 5M21 hz10-E (antibody, human IgG1, kappa, V domains shown)
VH: B4 VH with S31T, A56V, N58T, N63K, R72A, T74K, S99G, V100L
VL: B5 VL with L83V, F87Y
modifications: vcMMAE conjugated to the TECP-reduced antibody; residues not stated; DAR 4.0±1
Take B6: in assay [1], the “EC50 (ng/ml), inhibition” value came out at 21.1 ng/mL and the “Percentage of cell killing” value came to 29.4%.

B7: 20M12 hz11-E (antibody, human IgG1, kappa, V domains shown)
VH: B4 VH with R72A, T74K
VL: B4 VL
modifications: vcMMAE conjugated to the TECP-reduced antibody; residues not stated; DAR 4.0±1
Molecule B7 had an EC50 in assay [2] of 0.232 µg/mL. Further, in assay [3], the “Endocytosis efficiency (%)” value came out at 58.4%. Also, in assay [4], the “EC50 (ng/ml), inhibition” value is 31.6 ng/mL and the “Percentage of cell killing” value was found to be 38.3%.

B8: Enfortumab-E (antibody, human IgG1, kappa, V domains shown)
VH: EVQLVESGGGLVQPGGSLRLSCAASGFTFSSYNMNWVRQAPGKGLEWVSYISSSSSTIYYADSVKGRFTISRDNAKNSLSLQMNSLRDEDTAVYYCARAYYYGMDVWGQGTTVTVSS
VL: DIQMTQSPSSVSASVGDRVTITCRASQGISGWLAWYQQKPGKAPKFLIYAASTLQSGVPSRFSGSGSGTDFTLTISSLQPEDFATYYCQQANSFPPTFGGGTKVEIKR
modifications: vcMMAE conjugated to the TECP-reduced antibody; residues not stated; DAR 4.0±1
Turning to B8, it took 0.23 µg/mL to reach a half-maximal effect in assay [2] (EC50). For the same molecule, the “Endocytosis efficiency (%)” value in assay [3] was determined as 58.9%. Also, the “EC50 (ng/ml), inhibition” value is 5.37 ng/mL and 3.95 ng/mL and 5.11 ng/mL and 5.3 ng/mL in assay [1]; 2.26 ng/mL and 3.86 ng/mL and 2.91 ng/mL and 3.17 ng/mL in assay [4].

B9: 42D20 hz00 (antibody, V domains shown)
VH: QVQLQESGPGLVKPSETLSLTCTVSGFSLIDYGVSWIRQPPGKGLEWIGVIWGDGKIYYNSVLKSRVTISVDTSKNQFSLKLSSVTAADTAVYYCARQGGLLFYAMDYWGQGTLVTVSS
VL: DIVMTQSPDSLAVSLGERATINCKSSQSLLNSYSQKNYLAWYQQKPGQPPKLLIYFASTRESGVPDRFSGSGSGTDFTLTISSLQAEDVAVYYCQQHYNTPFTFGAGTKLELKR
notes: Humanized
In assay [5], B9 had an EC50 of 1.34 µg/mL. Besides, the “Endocytosis efficiency (%)” value in assay [6] was determined as 39.1%.

B10: 42D20 hz01 (antibody, V domains shown)
VH: B9 VH
VL: B9 VL with P49S, G74E, V89L, Y93F
notes: Humanized
In the case of B10, the EC50 in assay [5] amounted to 0.132 µg/mL. The “Endocytosis efficiency (%)” value in assay [6] stood at 41.5%.

B11: 42D20 hz20 (antibody, V domains shown)
VH: B9 VH with D54E, V71K, T73N, N76S, F78V, R97K
VL: B9 VL
Take B11: the “Endocytosis efficiency (%)” value in assay [6] is 42%.

B12: 42D20 hz02 (antibody, V domains shown)
VH: B9 VH
VL: B9 VL with N31Y, P49S, G74E, V89L, Y93F
notes: Humanized
In turn, B12 yielded an EC50 in assay [5] of 0.112 µg/mL.

B13: 42D20 hz10-E (antibody, V domains shown)
VH: B9 VH with V71K, T73N, N76S, F78V, R97K
VL: B9 VL
modifications: vcMMAE conjugated to the TECP-reduced antibody; residues not stated; DAR 4.0±1
In assay [2], B13 registered an EC50 of 0.307 µg/mL. For the same molecule, the “Endocytosis efficiency (%)” value in assay [3] amounted to 74%. Moreover, in assay [1], the “EC50 (ng/ml), inhibition” value turned out to be 2.61 ng/mL and the “Percentage of cell killing” value stood at 33.7%. Moreover, in assay [4], the “EC50 (ng/ml), inhibition” value is 9.41 ng/mL and the “Percentage of cell killing” value was 40.8%.

B14: 42D20 hz63-E (antibody, V domains shown)
VH: B9 VH with D54G, V71K, T73N, N76S, F78V, R97K
VL: B9 VL with S32T, P49S, G74E, V89L, Y93F
modifications: vcMMAE conjugated to the TECP-reduced antibody; residues not stated; DAR 4.0±1
As to B14, the response in assay [2] was half-maximal at 0.299 µg/mL (EC50). For the same molecule, the “Endocytosis efficiency (%)” value in assay [3] is 67.9%. Further, in assay [4], the “EC50 (ng/ml), inhibition” value was found to be 2.42 ng/mL and the “Percentage of cell killing” value came to 47%.

B15: 42D20 hz64-E (antibody, V domains shown)
VH: B9 VH with D54G, V71K, T73N, N76S, F78V, R97K
VL: B9 VL with S32K
modifications: vcMMAE conjugated to the TECP-reduced antibody; residues not stated; DAR 4.0±1
As for B15, a half-maximal effect in assay [2] (EC50) was put at 0.373 µg/mL. For the same molecule, the “Endocytosis efficiency (%)” value in assay [3] was determined as 66.6%. Also, in assay [4], the “EC50 (ng/ml), inhibition” value was 4.58 ng/mL and the “Percentage of cell killing” value worked out at 40.9%.

B16: 42D20 hz44-E (antibody, V domains shown)
VH: B9 VH with G55A, V71K, T73N, N76S, F78V, R97K
VL: B9 VL with S32K
modifications: vcMMAE conjugated to the TECP-reduced antibody; residues not stated; DAR 4.0±1
As for B16, the EC50 in assay [2] is 0.504 µg/mL. Besides, the “Endocytosis efficiency (%)” value in assay [3] was determined as 71.1%. Moreover, in assay [4], the “EC50 (ng/ml), inhibition” value turned out to be 3.61 ng/mL and the “Percentage of cell killing” value is 42.7%.

B17: 42D20 hz43-E (antibody, V domains shown)
VH: B9 VH with G55A, V71K, T73N, N76S, F78V, R97K
VL: B9 VL with S32T, P49S, G74E, V89L, Y93F
modifications: vcMMAE conjugated to the TECP-reduced antibody; residues not stated; DAR 4.0±1
In assay [2], B17 registered an EC50 of 0.43 µg/mL. For the same molecule, in assay [3], the “Endocytosis efficiency (%)” value came to 68.9%. In assay [4], the “EC50 (ng/ml), inhibition” value came to 6.31 ng/mL and the “Percentage of cell killing” value worked out at 42.5%.

B18: 42D20 hz21 (antibody, V domains shown)
VH: B9 VH with D54E, V71K, T73N, N76S, F78V, R97K
VL: B9 VL with P49S, G74E, V89L, Y93F
notes: Humanized
B18 showed an EC50 in assay [5] of 0.285 µg/mL. Also, the “Endocytosis efficiency (%)” value in assay [6] is 43.9%.

B19: 42D20 hz03 (antibody, V domains shown)
VH: B9 VH
VL: B9 VL with S32T, P49S, G74E, V89L, Y93F
notes: Humanized
In the case of B19, the EC50 in assay [5] came out at 0.0676 µg/mL. Moreover, the “Endocytosis efficiency (%)” value in assay [6] came to 41.1%.
